Experimental data taken from PMC7955110, “Cryo-EM structure of amyloid fibrils formed by the entire low complexity domain of TDP-43” (Nature Communications, 2021).

Molecular target: the molecule itself
Test: cryo-EM structure; amyloid fibrils formed at 30 uM protein in 20 mM sodium acetate pH 4.0, 37 °C with rotation, four rounds of sequential seeding (10% w/w sonicated fibrils); helical reconstruction of twisted fibrils, 3.2 Å

B1: TDP-43 low complexity domain (transactive response DNA-binding protein of 43 kDa, C-terminal low-complexity domain) (domain or fragment, UniProt Q13148 267-414, looked up)
chain: NRQLERSGRFGGNPGGFGNQGGFGNSRGGGAGLGNNQGSNMGGGMNFGAFSINPAMMAAAQAALQSSWGMMGMLASQQNQSGPSGNNQNQGNMQREPNQAFGSGNNSYSGSNSGAAIGWGSASNAGSGSGFNGGFGSSMDSKSSGWGM
notes: TDP-43, entire C-terminal low-complexity domain; Wild-type, non-phosphorylated; The assayed form is an amyloid fibril: a single protofilament of stacked subunits with an ordered core of residues 276-414; Five chains were built in the model; also called TDP-43 LCD; LCD; source: Rosetta (DE3) pLysS cells, purified (Ni-NTA in 8 M urea, HPLC on a C4 column), lyophilized
binding result: binds
